Legend:
[1] = target: human PDGF-B (c-sis) (human) (UniProt P01127); test: cell-based or functional assay
[2] = target: wildtype murine PDGF A chain (murine) (UniProt P20033); test: cell-based or functional assay

Sequence of human PDGF-B (c-sis) (human) (P01127 82-190 limits assumed): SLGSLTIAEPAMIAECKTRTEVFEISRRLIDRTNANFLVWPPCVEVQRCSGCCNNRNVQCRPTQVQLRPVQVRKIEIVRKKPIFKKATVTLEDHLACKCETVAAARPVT

growth of PDGF-B (c-sis) transformed Balb/c 3T3 sublines in PPP-supplemented medium [1]: 90 % inhibition
growth of PDGF-A transformed Balb/c 3T3 sublines in PPP-supplemented medium (% suppression) [2]: 70
Substance: PDGF A dominant negative mutant 1308 (murine PDGF A chain with the third cysteine residue changed to serine) (from UniProt P20033 87-196) (ligand)

— patent US6475781
